In patent publication US8129349B2, “Treatment of disease by inducing cell apoptosis” (The Regents of the University of California, priority 2000, dated 2012):
Marks after values point to notes of the source that are not given here.

Columns and labels:
[1] = tested on: C3A (liver cancer cell line); assay: Annexin-V binding apoptosis assay after transfection, C3A cells; assay type: cell-based, human; details: annexin-V binding four hours after transfection
Method: (§1) In these experiments, C/EBPβ-Ala^217 was tested in two mesenchymal cell lines for its ability to induce apoptosis. Human mesenchymal cell lines 1321-N1 (glial cancer cells; obtained from Dr. Joan Brown, at the University of California, San Diego), RD (skeletal muscle cancer cells; ATCC Accession No. CCL-136), human fibroblasts (98VA3N cells, obtained from Dr. Jerry VanderBerg, at the Veterans Administration Medical Center, San Diego, Calif.), ES2 (ovarian cancer cell line), C3A (liver cancer cell line), and MCF-7 breast cancer cells were cultured in minimal essential medium supplemented with fetal bovine serum as known in the art (See e.g., Buck et al., EMBO J., 13:151-160 (1994)). As additional cell types find use in the present invention, it is not intended that the present invention be limited to these specific cell lines. Indeed, similar results have been obtained with other cell types (e.g., CCF-STTG1 cells (ATCC Accession No. CRL-1718)) (data not shown).
(§2) Cells were co-transfected with vectors expressing the indicator protein GFP and C/EBPβ-Ala^217 as known in the art (See, Buck et al., Mol. Cell., 4:1087-1092 (1999)). Control cells were only transfected with GFP. […]

[2] = tested on: MCF-7 breast cancer cells; assay: Annexin-V binding apoptosis assay after transfection, MCF-7 cells; assay type: cell-based, human; details: annexin-V binding four hours after transfection
Method: as §1, §2

[3] = tested on: hepatic stellate cells; assay: Apoptosis of activated stellate cells transfected with C/EBPβ constructs, annexin-V-PE binding; assay type: cell-based, mouse; details: transfected cells on collagen type I matrix
Text: FIG. 1 provides data showing that phosphorylation of C/EBPβ on Thr^217 is required for hepatic stellate cell survival. Panel A provides phosphopeptide maps of in vivo labeled endogenous C/EBPβ in day-4 quiescent and activated primary mouse stellate cells cultured from the time of isolation on EHS or collagen type I matrix, respectively. The arrow indicates the peptide containing Phospho-Thr^217 in activated cells. […] Panel B provides phosphopeptide maps of in vitro labeled C/EPBβ. Active p90RSK phosphorylated C/EPBβ, but not C/EBPβ-Ala^217 on Thr^217 in vitro (arrowheads). Panel C provides results for cells cultured on collagen type I transfected with MSV-C/EBPβ antisense (AS), MSV-C/EBPβ sense (S), or MSV-C/EBPβ-Ala^217 together with CMV-GFP (green fluorescent protein) and p90RSK (1 μg each), as indicated in the Figure. Four hours after transfection, annexin-V-PE binding to plasma membranes was determined. The values presented are the percentage of transfected cells (green) that were annexin-V-PE (+) (red) (P<0.05 for C/EBPβ AS, and C/EBPβ-Ala^217). Panel D provides results for cells transfected as in […] with vectors expressing dominant negative mutants for MEKK1, IκBα, or p90RSK, or treated with the proteasome inhibitor lactacystin (10 μM) (closed bars), and co-transfected with MSV-C/EBPβ-Glu^217 (1 μg each) (open bars) as indicated. Annexin-V-PE binding was determined as described for Panel A (P<0.05 for C/EBPβ-Glu^217). Panel E provides results for cells transfected as described for Panel C, with a dominant-negative p90RSK, treated with FAS (100 nM for 6 hours) or cultured in a serum-free medium for 6 hours (closed bars), and co-transfected with MSV-C/EBPβ-Glu^217 (1 μg each) (open bars), as indicated. Cell death was determined by nuclear staining with Hoechst 33342 (P<0.05 for C/EBPβ-Glu^217 in RSK mut and FAS-treated cells).
FIG. 4 provides results showing that C/EBPβ PThr^217 associates with procaspases 1 and 8, and inhibits their activation. Panel A provides schematic representations of C/EBPβ peptides. The activation (dotted bars), DNA binding (solid bars) and dimerization (hatched bars) domains are shown. […] Panel C provides results showing that C/EBPβ and procaspase 8 were detected in activated stellate cells isolated from C/EBPβ^+/+ mice by confocal microscopy using specific antibodies (Santa Cruz Biotechnology). Control C/EBPβ^−/− stellate cells were negative for C/EBPβ, positive for procaspase 8, and apoptotic. Panel D provides immunoblot results for MSV vectors expressing C/EBPβ-HA (hemagglutinin protein) peptides (0.3 μg) transfected into activated stellate cells. The expressed peptides were immunoprecipitated with anti-HA antibodies. C/EBPβ-PThr^217 was detected using a specific antibody, only in cells expressing wild-type C/EBPβ. […] RSK was associated with all C/EBPβ peptides. Neither C/EBPβ nor procaspases 1 and 8 were detected in C/EBPβ immunoprecipitates from cells expressing C/EBPβ AS. Reciprocal immunoprecipitations of procaspases and RSK confirmed these associations.
Adult male Sprague-Dawley rats and adult male C/EBPβ^+/+ and C/EBPβ^−/− (Screpanti et al., supra; and Buck et al., (1999), supra), C/EBPβ-Ala^217 and C/EBPβ-Asp^105 transgenic mice were used for the isolation of primary hepatic stellate cells (Houglum et al., supra). Primary hepatic stellate cells were isolated by collagenase/pronase perfusion and purified by a single step density Nycodenz gradient (Accurate Chemical & Scientific) as known in the art (See, Lee et al., (1995), supra). Cells were plated on type I collagen matrix (Becton Dickinson) or EHS matrix (Matrigel, Collaborative Biomedical Products). Cells were cultured with 10% fetal calf serum/10% fetal bovine serum and transfected with lipofectamine (GIBCO) for DNA vectors or with the Chariot reagent (Active Motif) for peptides (10 μM) as known in the art (See, Houglum et al., supra; and Morris et al., J. Biol. Chem., 274:24942-24946 (1999)). […]

[4] = tested on: 1321-N1 (glial cancer cells); assay: Annexin-V binding apoptosis assay after transfection, 1321-N1 cells; assay type: cell-based, human; details: annexin-V binding four hours after transfection
Method: as §1, §2

[5] = tested on: human fibroblasts (98VA3N cells); assay: Annexin-V binding apoptosis assay after transfection, 98VA3N cells; assay type: cell-based; details: annexin-V binding four hours after transfection
Method: as §1, §2

[6] = tested on: RD (skeletal muscle cancer cells); assay: Annexin-V binding apoptosis assay after transfection, RD cells; assay type: cell-based, human; details: annexin-V binding four hours after transfection
Method: as §1, §2

[7] = tested on: ES2 (ovarian cancer cell line); assay: Annexin-V binding apoptosis assay after transfection, ES2 cells; assay type: cell-based, human; details: annexin-V binding four hours after transfection
Method: as §1, §2

B1: C/EBPβ-Ala^217: modified murine C/EBPβ with mutation of Thr^217 to Ala (SEQ ID NO:3), nonphosphorylatable dominant negative mutant (protein, listed as Mus musculus)
chain: MHRLLAWDAACLPPPPAAFRPMEVANFYYEPDCLAYGAKAARAAPRAPAAEPAIGEHERAIDFSPYLEPLAPAADFAAPAPAHHDFLSDLFADDYGAKPSKKPADYGYVSLGRAGAKAAPPACFPPPPPAALKAEPGFEPADCKRADDAPAMAAGFPFALRAYLGYQATPSGSSGSLSTSSSSSPPGTPSPADAKAAPAACFAGPPAAPAKAKAKKAVDKLSDEYKMRRERNNIAVRKSRDKAKMRNLETQHKVLELTAENERLQKKVEQLSRELSTLRNLFKQLPEPLLASAGHC
Apoptosis (%) [1]: 34* %
Apoptosis (%) [2]: 49* %
Effect of expressed construct on apoptosis / survival of stellate cells [3]: became apoptotic
Apoptosis (%) [4]: 56* %
Apoptosis (%) [5]: 80* %
Apoptosis (%) [6]: 46* %
Apoptosis (%) [7]: 44* %
